In patent US6361998B1, “Efficient culture of stem cells for the production of hemoglobin” (Hemosol Inc., priority 1999, dated 2002):

Key:
[1] = test system: erythroid-cultured CD34^+lin^- cells; assay: Methylcellulose colony-forming assay two to three days after transfection of cultured erythroid cells; format: cell-based, human; conditions: for # of erythroid colonies in EpoR(t439; R154C) transfected samples: BFU-E and CFU-E; for increase in erythroid colonies: versus untransfected or mock transfected control
Experimental: CD34^+lin^− cells cultured for 7 to 10 days in EPSFM+LDL were washed in EB and subjected to electroporation in the presence of EpoR(t439; R154C)/pcDNA3.1 expression vector as described in Example 3. Two to three days post-transfection, aliquots of untransfected and EpoR(t439; R154C)/pcDNA3.1 transfected cells were counted for viability by trypan-blue dye exclusion and methylcellose colony-forming assays were performed in IMDM, 1% methylcellulose, 30% FBS, 1% BSA, 10^−4 M β mercaptoethanol, and […] glutamine, IL-3 (10 ng/ml), SCF (50 ng/ml) and EPO (2 U/ml).

BaF3 cells = assay: Cytokine-dependency growth of BaF3 cells transfected with human EpoR constructs; format: cell-based, murine; conditions: for growth of BaF3 transfectants: no exogenous IL-3
Experimental: The functionality of the EpoR(t439; R154C) was tested and compared to the wild-type EpoR (wtEpoR) and EpoR(t439) using the BaF3 cell line. The cDNAs encoding these three different EpoRs were subcloned into the pcDNA3.1 expression vector, which provides high-level constitutive expression of proteins in mammalian cells and also contains the neomycin gene for the selection of stable transfectant with G418. The vector constructs were electroporated into BaF3 cells and stable transfectants were isolated in the presence of 600 ug/ml G418. BaF3 transfectants were maintained in RPMI-1640 with 10% FBS and 5% WEHI conditioned medium (a source of murine IL-3), except during the cytokine-dependency studies when cells were maintained in RPMI-1640 plus 10% FBS, along with the indicated cytokines. Growth of the different EpoR transfectants in the presence of either murine IL-3 or two different doses of Epo was compared to that of the parental (non-transfected) BaF3 cells (FIG. 7). […] All three EpoR constructs encode functional receptors that allow expansion of the BaF3 cells in the presence of Epo without exogenous IL-3.

[2] = test system: erythroid-cultured CD34^+lin^- cells; assay: Methylcellulose colony-forming assay after 14 days liquid culture in G418; format: cell-based, human; conditions: after 14 days liquid culture with 500 ug/ml G418
Experimental: Cells transfected with either EpoR(t439; R154C)/pcDNA3.1 or the pcDNA3.1 vector alone were placed in liquid culture (IMDM, 1% BSA, 10 ng/ml rhIL-3, 50 ng/ml SCF and 2 U/ml EPO) in the presence of 500 ug/ml G418 for 14 days. At this time, cells were counted for viability by trypan-blue dye exclusion and methylcellose colony-forming assays were performed in IMDM, 1% methylcellulose, 30% FBS, 1% BSA, 10^−4 M β mercaptoethanol, and […] glutamine, IL-3 (10 ng/ml), SCF (50 ng/ml), EPO (2 U/ml) and 500 ug/ml G418. […] No colonies were detected in the untransfected or “mock” transfected controls. Thus, expression of the EpoR(t439; R154C)/pcDNA3.1 plasmid not only conferred G418 resistance but increased the number of erythroid progenitors detectable after 14 days of liquid culture.

B1: EpoR(t439; R154C): human EpoR truncated at amino acid 439 with R154C point mutation; constitutively active (SEQ ID NOS 6 and 7) (protein, listed as Homo sapiens)
chain: MDHLGASLWPQVGSLCLLLAGAAWAPPPNLPDPKFESKAALLAARGPEELLCFTERLEDLVCFWEEAASAGVGPGNYSFSYQLEDEPWKLCRLHQAPTARGAVRFWCSLPTADTSSFVPLELRVTAASGAPRYHRVIHINEVVLLDAPVGLVACLADESGHVVLRWLPPPETPMTSHIRYEVDVSAGNGAGSVQRVEILEGRTECVLSNLRGRTRYTFAVRARMAEPSFGGFWSAWSEPVSLLTPSDLDPLILTLSLILVVILVLLTVLALLSHRRALKQKIWPGIPSPESEFEGLFTTHKGNFQLWLYQNDGCLWWSPCTPFTEDPPASLEVLSERCWGTMQAVEPGTDDEGPLLEPVGSEHAQDTYLVLDKWLLPRNPPSEDLPGPGGSVDIVAMDEGSEASSCSSALASKPSPEGASAASFEYTILDPSSQLLRP
# of erythroid colonies in EpoR(t439; R154C) transfected samples ([1]; Experiment # 1): 428
increase in erythroid colonies ([1]; Experiment # 1): +388
# of erythroid colonies in EpoR(t439; R154C) transfected samples ([1]; Experiment # 2): 522
increase in erythroid colonies ([1]; Experiment # 2): +98
# of erythroid colonies in EpoR(t439; R154C) transfected samples ([1]; Experiment # 3): 66
increase in erythroid colonies ([1]; Experiment # 3): +66
growth of BaF3 transfectants (BaF3 cells; 0.02 U/ml Epo): grew in the presence of either 0.02 or 2 U/ml Epo but less than in the presence of IL-3
growth of BaF3 transfectants (BaF3 cells; 2 U/ml Epo): grew in the presence of either 0.02 or 2 U/ml Epo but less than in the presence of IL-3
expansion of BaF3 cells (BaF3 cells; absence of exogenous cytokines): supported expansion
functionality of the EpoR (BaF3 cells; conclusion from BaF3 growth): constitutively active form of the EpoR
erythroid colonies compared to pcDNA3.1 vector alone [2]: More erythroid colonies
